Data taken from US20250171562A1.

B1: CIgG4E4A1(RS) (Fc fusion)
chain 1: GPPCPPCPAPEFLGGPSVFLFPPKPKDTLMISRTPEVTCVVVDVSQEDPEVQFNWYVDGVEVHNAKTKPREEQFNSTYRVVSVLTVLHQDWLNGKEYKCKVSNKGLPSSIEKTISKAKGQPREPQVYTLPPCQEEMTKNQVSLWCLVKGFYPSDIAVEWESNGQPENNYKTTPPVLDSDGSFFLYSRLTVDKSRWQEGNVFSCSVMHEALHNHYTQKSLSLSLGKRSDVQLQESGGGLVQPGGSLRLSCAASGFRFSNYAMRWYRQAPGKEREFVARISSTGFITRYTASVRDRFTISRDNDKNMMYLQLNKLTPQDTAHYYCNAESTDYWGQGTQVTVS
chain 2: GPPCPPCPAPEFLGGPSVFLFPPKPKDTLMISRTPEVTCVVVDVSQEDPEVQFNWYVDGVEVHNAKTKPREEQFNSTYRVVSVLTVLHQDWLNGKEYKCKVSNKGLPSSIEKTISKAKGQPREPQVCTLPPSQEEMTKNQVSLSCAVKGFYPSDIAVEWESNGQPENNYKTTPPVLDSDGSFFLVSRLTVDKSRWQEGNVFSCSVMHEALHNHYTQKSLSLSLGKRSEVQLLESGGGLVQPGGSLRLSCAASGFTFGNYDMAWVRQAPGKRPEWVSSIDTGGDITHYADSVKGRFTISRDNAKNTLYLQMNSLRPEDTAVYWCATDEEYALGPNEFDYYGQGTLVTVSS
B2: CIgG4E4A1(G4S)3 (Fc fusion)
chain 1: GPPCPPCPAPEFLGGPSVFLFPPKPKDTLMISRTPEVTCVVVDVSQEDPEVQFNWYVDGVEVHNAKTKPREEQFNSTYRVVSVLTVLHQDWLNGKEYKCKVSNKGLPSSIEKTISKAKGQPREPQVYTLPPCQEEMTKNQVSLWCLVKGFYPSDIAVEWESNGQPENNYKTTPPVLDSDGSFFLYSRLTVDKSRWQEGNVFSCSVMHEALHNHYTQKSLSLSLGKGGGGSGGGGSGGGGSDVQLQESGGGLVQPGGSLRLSCAASGFRFSNYAMRWYRQAPGKEREFVARISSTGFITRYTASVRDRFTISRDNDKNMMYLQLNKLTPQDTAHYYCNAESTDYWGQGTQVTVS
chain 2: GPPCPPCPAPEFLGGPSVFLFPPKPKDTLMISRTPEVTCVVVDVSQEDPEVQFNWYVDGVEVHNAKTKPREEQFNSTYRVVSVLTVLHQDWLNGKEYKCKVSNKGLPSSIEKTISKAKGQPREPQVCTLPPSQEEMTKNQVSLSCAVKGFYPSDIAVEWESNGQPENNYKTTPPVLDSDGSFFLVSRLTVDKSRWQEGNVFSCSVMHEALHNHYTQKSLSLSLGKGGGGSGGGGSGGGGSEVQLLESGGGLVQPGGSLRLSCAASGFTFGNYDMAWVRQAPGKRPEWVSSIDTGGDITHYADSVKGRFTISRDNAKNTLYLQMNSLRPEDTAVYWCATDEEYALGPNEFDYYGQGTLVTVSS
B3: NIgG4E4A1(G4S)2 (Fc fusion)
chain 1: DVQLQESGGGLVQPGGSLRLSCAASGFRFSNYAMRWYRQAPGKEREFVARISSTGFITRYTASVRDRFTISRDNDKNMMYLQLNKLTPQDTAHYYCNAESTDYWGQGTQVTVSGGGGSGGGGSGPPCPPCPAPEFLGGPSVFLFPPKPKDTLMISRTPEVTCVVVDVSQEDPEVQFNWYVDGVEVHNAKTKPREEQFNSTYRVVSVLTVLHQDWLNGKEYKCKVSNKGLPSSIEKTISKAKGQPREPQVYTLPPCQEEMTKNQVSLWCLVKGFYPSDIAVEWESNGQPENNYKTTPPVLDSDGSFFLYSRLTVDKSRWQEGNVFSCSVMHEALHNHYTQKSLSLSLGK
chain 2: EVQLLESGGGLVQPGGSLRLSCAASGFTFGNYDMAWVRQAPGKRPEWVSSIDTGGDITHYADSVKGRFTISRDNAKNTLYLQMNSLRPEDTAVYWCATDEEYALGPNEFDYYGQGTLVTVSSGGGGSGGGGSGPPCPPCPAPEFLGGPSVFLFPPKPKDTLMISRTPEVTCVVVDVSQEDPEVQFNWYVDGVEVHNAKTKPREEQFNSTYRVVSVLTVLHQDWLNGKEYKCKVSNKGLPSSIEKTISKAKGQPREPQVCTLPPSQEEMTKNQVSLSCAVKGFYPSDIAVEWESNGQPENNYKTTPPVLDSDGSFFLVSRLTVDKSRWQEGNVFSCSVMHEALHNHYTQKSLSLSLGK
B4: NIgG4E4A1(G4S)3 (Fc fusion)
chain 1: DVQLQESGGGLVQPGGSLRLSCAASGFRFSNYAMRWYRQAPGKEREFVARISSTGFITRYTASVRDRFTISRDNDKNMMYLQLNKLTPQDTAHYYCNAESTDYWGQGTQVTVSGGGGSGGGGSGGGGSGPPCPPCPAPEFLGGPSVFLFPPKPKDTLMISRTPEVTCVVVDVSQEDPEVQFNWYVDGVEVHNAKTKPREEQFNSTYRVVSVLTVLHQDWLNGKEYKCKVSNKGLPSSIEKTISKAKGQPREPQVYTLPPCQEEMTKNQVSLWCLVKGFYPSDIAVEWESNGQPENNYKTTPPVLDSDGSFFLYSRLTVDKSRWQEGNVFSCSVMHEALHNHYTQKSLSLSLGK
chain 2: EVQLLESGGGLVQPGGSLRLSCAASGFTFGNYDMAWVRQAPGKRPEWVSSIDTGGDITHYADSVKGRFTISRDNAKNTLYLQMNSLRPEDTAVYWCATDEEYALGPNEFDYYGQGTLVTVSSGGGGSGGGGSGGGGSGPPCPPCPAPEFLGGPSVFLFPPKPKDTLMISRTPEVTCVVVDVSQEDPEVQFNWYVDGVEVHNAKTKPREEQFNSTYRVVSVLTVLHQDWLNGKEYKCKVSNKGLPSSIEKTISKAKGQPREPQVCTLPPSQEEMTKNQVSLSCAVKGFYPSDIAVEWESNGQPENNYKTTPPVLDSDGSFFLVSRLTVDKSRWQEGNVFSCSVMHEALHNHYTQKSLSLSLGK
B5: CIgG4E4A1(G4S)2 (Fc fusion)
chain 1: GPPCPPCPAPEFLGGPSVFLFPPKPKDTLMISRTPEVTCVVVDVSQEDPEVQFNWYVDGVEVHNAKTKPREEQFNSTYRVVSVLTVLHQDWLNGKEYKCKVSNKGLPSSIEKTISKAKGQPREPQVYTLPPCQEEMTKNQVSLWCLVKGFYPSDIAVEWESNGQPENNYKTTPPVLDSDGSFFLYSRLTVDKSRWQEGNVFSCSVMHEALHNHYTQKSLSLSLGKGGGGSGGGGSDVQLQESGGGLVQPGGSLRLSCAASGFRFSNYAMRWYRQAPGKEREFVARISSTGFITRYTASVRDRFTISRDNDKNMMYLQLNKLTPQDTAHYYCNAESTDYWGQGTQVTVS
chain 2: GPPCPPCPAPEFLGGPSVFLFPPKPKDTLMISRTPEVTCVVVDVSQEDPEVQFNWYVDGVEVHNAKTKPREEQFNSTYRVVSVLTVLHQDWLNGKEYKCKVSNKGLPSSIEKTISKAKGQPREPQVCTLPPSQEEMTKNQVSLSCAVKGFYPSDIAVEWESNGQPENNYKTTPPVLDSDGSFFLVSRLTVDKSRWQEGNVFSCSVMHEALHNHYTQKSLSLSLGKGGGGSGGGGSEVQLLESGGGLVQPGGSLRLSCAASGFTFGNYDMAWVRQAPGKRPEWVSSIDTGGDITHYADSVKGRFTISRDNAKNTLYLQMNSLRPEDTAVYWCATDEEYALGPNEFDYYGQGTLVTVSS
B6: NIgG4F1A1(RS) (Fc fusion)
chain 1: DVQLQESGGGLVQAGGSLKLSCAASGGSLSRYDMGWFRQAPGKEREFVARISWSGTTKYYADAVKGRFAISRDNAKNTVYLQMNSLKPEDTAVYYCAAAFYGNRGYYDVNAYTSSGQGTQVTVSRSGPPCPPCPAPEFLGGPSVFLFPPKPKDTLMISRTPEVTCVVVDVSQEDPEVQFNWYVDGVEVHNAKTKPREEQFNSTYRVVSVLTVLHQDWLNGKEYKCKVSNKGLPSSIEKTISKAKGQPREPQVYTLPPCQEEMTKNQVSLWCLVKGFYPSDIAVEWESNGQPENNYKTTPPVLDSDGSFFLYSRLTVDKSRWQEGNVFSCSVMHEALHNHYTQKSLSLSLGK
chain 2: EVQLLESGGGLVQPGGSLRLSCAASGFTFGNYDMAWVRQAPGKRPEWVSSIDTGGDITHYADSVKGRFTISRDNAKNTLYLQMNSLRPEDTAVYWCATDEEYALGPNEFDYYGQGTLVTVSSRSGPPCPPCPAPEFLGGPSVFLFPPKPKDTLMISRTPEVTCVVVDVSQEDPEVQFNWYVDGVEVHNAKTKPREEQFNSTYRVVSVLTVLHQDWLNGKEYKCKVSNKGLPSSIEKTISKAKGQPREPQVCTLPPSQEEMTKNQVSLSCAVKGFYPSDIAVEWESNGQPENNYKTTPPVLDSDGSFFLVSRLTVDKSRWQEGNVFSCSVMHEALHNHYTQKSLSLSLGK
B7: CIgG4E4A1(G4S)1 (Fc fusion)
chain 1: GPPCPPCPAPEFLGGPSVFLFPPKPKDTLMISRTPEVTCVVVDVSQEDPEVQFNWYVDGVEVHNAKTKPREEQFNSTYRVVSVLTVLHQDWLNGKEYKCKVSNKGLPSSIEKTISKAKGQPREPQVYTLPPCQEEMTKNQVSLWCLVKGFYPSDIAVEWESNGQPENNYKTTPPVLDSDGSFFLYSRLTVDKSRWQEGNVFSCSVMHEALHNHYTQKSLSLSLGKGGGGSDVQLQESGGGLVQPGGSLRLSCAASGFRFSNYAMRWYRQAPGKEREFVARISSTGFITRYTASVRDRFTISRDNDKNMMYLQLNKLTPQDTAHYYCNAESTDYWGQGTQVTVS
chain 2: GPPCPPCPAPEFLGGPSVFLFPPKPKDTLMISRTPEVTCVVVDVSQEDPEVQFNWYVDGVEVHNAKTKPREEQFNSTYRVVSVLTVLHQDWLNGKEYKCKVSNKGLPSSIEKTISKAKGQPREPQVCTLPPSQEEMTKNQVSLSCAVKGFYPSDIAVEWESNGQPENNYKTTPPVLDSDGSFFLVSRLTVDKSRWQEGNVFSCSVMHEALHNHYTQKSLSLSLGKGGGGSEVQLLESGGGLVQPGGSLRLSCAASGFTFGNYDMAWVRQAPGKRPEWVSSIDTGGDITHYADSVKGRFTISRDNAKNTLYLQMNSLRPEDTAVYWCATDEEYALGPNEFDYYGQGTLVTVSS
B8: NIgG4E4A1(G4S)1 (Fc fusion)
chain 1: DVQLQESGGGLVQPGGSLRLSCAASGFRFSNYAMRWYRQAPGKEREFVARISSTGFITRYTASVRDRFTISRDNDKNMMYLQLNKLTPQDTAHYYCNAESTDYWGQGTQVTVSGGGGSGPPCPPCPAPEFLGGPSVFLFPPKPKDTLMISRTPEVTCVVVDVSQEDPEVQFNWYVDGVEVHNAKTKPREEQFNSTYRVVSVLTVLHQDWLNGKEYKCKVSNKGLPSSIEKTISKAKGQPREPQVYTLPPCQEEMTKNQVSLWCLVKGFYPSDIAVEWESNGQPENNYKTTPPVLDSDGSFFLYSRLTVDKSRWQEGNVFSCSVMHEALHNHYTQKSLSLSLGK
chain 2: EVQLLESGGGLVQPGGSLRLSCAASGFTFGNYDMAWVRQAPGKRPEWVSSIDTGGDITHYADSVKGRFTISRDNAKNTLYLQMNSLRPEDTAVYWCATDEEYALGPNEFDYYGQGTLVTVSSGGGGSGPPCPPCPAPEFLGGPSVFLFPPKPKDTLMISRTPEVTCVVVDVSQEDPEVQFNWYVDGVEVHNAKTKPREEQFNSTYRVVSVLTVLHQDWLNGKEYKCKVSNKGLPSSIEKTISKAKGQPREPQVCTLPPSQEEMTKNQVSLSCAVKGFYPSDIAVEWESNGQPENNYKTTPPVLDSDGSFFLVSRLTVDKSRWQEGNVFSCSVMHEALHNHYTQKSLSLSLGK

What follows are binders tested against mixture of three Der p 2 specific recombinant human IgE clones H10, H12, P4E (human) (UniProt P01854) (assay: RBL-SX38 IgE displacement, FACS).
Sequence of mixture of three Der p 2 specific recombinant human IgE clones H10, H12, P4E (human) (P01854 other isoform, or with tags, fused parts or gaps): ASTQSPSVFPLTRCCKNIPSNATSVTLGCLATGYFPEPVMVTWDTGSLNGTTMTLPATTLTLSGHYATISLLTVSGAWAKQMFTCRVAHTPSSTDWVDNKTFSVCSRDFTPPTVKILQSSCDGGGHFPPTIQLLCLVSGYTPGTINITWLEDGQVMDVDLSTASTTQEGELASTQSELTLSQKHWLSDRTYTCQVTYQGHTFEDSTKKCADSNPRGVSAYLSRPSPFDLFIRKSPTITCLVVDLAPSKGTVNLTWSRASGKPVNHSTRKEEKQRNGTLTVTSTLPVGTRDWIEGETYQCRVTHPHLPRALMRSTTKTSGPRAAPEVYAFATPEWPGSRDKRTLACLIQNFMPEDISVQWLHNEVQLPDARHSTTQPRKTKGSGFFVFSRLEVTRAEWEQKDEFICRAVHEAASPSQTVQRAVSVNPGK

Max effect/effect 1 µM | EC50 | Binder
0% | – | B1
98% | 0.0316 µM | B2
98% | 0.0164 µM | B3
92% | 0.036 µM | B4
94% | 0.107 µM | B5
88% | 0.0035 µM | B6
87% | 0.241 µM | B7
97% | 0.017 µM | B8
